{"source": "paper PMC4800440", "about": "(Nature Communications, 2016)", "binders": {"B1": {"name": "human oestrogen receptor beta ligand-binding domain ERβ-EF (255–530) (domain or fragment, UniProt Q92731 255-530, looked up)", "chain": "VRELLLDALSPEQLVLTLLEAEPPHVLISRPSAPFTEASMMMSLTKLADKELVHMISWAKKIPGFVELSLFDQVRLLESCWMEVLMMGLMWRSIDHPGKLIFAPDLVLDRDEGKCVEGILEIFDMLLATTSRFRELKLQHKEYLCVKAMILLNSSMYPLVTATQDADSSRKLAHLLNAVTDALVWVIAKSGISSQQQSMRLANLLMLLSHVRHASNKGMEHLLNMKCKNVVPVYDLLLEMLNAHVLRGCKSSITGSECSPAEDSKSKEGSQNPQSQ", "notes": "Estradiol (E2) present throughout; Tag removed with TEV protease; the thioredoxin tag was separated from the complex by gel filtration; also called ERβ LBD; Trx-His-tev-ERβ-EF (255–530); source: E. coli BL21(DE3), with 10 μM estradiol; not shown: thioredoxin, N-terminal, cleaved; His, N-terminal, cleaved"}, "B2": {"name": "TIF2 (623–772), His-tb-TIF2, expressed alone for the complex with ERβ-EF (domain or fragment, human, UniProt Q15596 623-772, looked up)", "chain": "SERADGQSRLHDSKGQTKLLQLLTTKSDQMEPSPLASSLSDTNKDSTGSLPGSGSTHGTSLKEKHKILHRLLQDSSSPVDLAKLTAEATGKDLSQESSSTAPGSEVTIKQEPVSPKKKENALLRYLLDKDDTKDIGLPEITPKLERLDSK", "notes": "also called transcriptional intermediary factor 2"}, "B3": {"name": "GR_LBD triple mutant C638A, W557T and W712S (residue 524–777) (domain or fragment, human, UniProt P04150 524-777, looked up)", "chain": "TLPQLTPTLVSLLEVIEPEVLYAGYDSSVPDSTTRIMTTLNMLGGRQVIAAVKWAKAIPGFRNLHLDDQMTLLQYSWMFLMAFALGWRSYRQSSANLLCFAPDLIINEQRMTLPAMYDQCKHMLYVSSELHRLQVSYEEYLCMKTLLLLSSVPKDGLKSQELFDEIRMTYIKELGKAIVKREGNSSQNSQRFYQLTKLLDSMHEVVENLLNYCFQTFLDKTMSIEFPEMLAEIITNQIPKYSNGNIKKLLFHQK", "notes": "Dexamethasone present throughout; Tags removed with thrombin; The bioinformatics methods print the cysteine as Cys 636, the production methods as C638A; also called GRtm-E; GRtm LBD; not shown: NusA, N-terminal, cleaved; His6, N-terminal, cleaved"}}, "key": {"[1]": {"target": "B2", "assay": "native MS", "conditions": "both partners purified"}, "[2]": {"target": "B1", "assay": "SEC", "conditions": "partners not purified"}, "[3]": {"target": "T1, TIF2 (623–772), (His)6-thrombin-TIF2, co-expressed with GRtm-E (human, UniProt Q15596 623-772)", "T1 construct": "Same limits as m2; here the tags were removed by thrombin cleavage; not shown: His6, N-terminal, cleaved", "T1 sequence (looked up)": "B2 chain", "conditions": "both partners purified"}}, "note": "“And” between values parts separate entries of the source, which are not always exact repeats. Equal values may be shown once."}
{"binder": "B1", "values": [{"measurement": "stoichiometry N", "setting": "[1]", "value": 2, "unit": "ERβ-EF per TIF2"}]}
{"binder": "B2", "values": [{"measurement": "binding result", "setting": "[2]", "value": "binds"}]}
{"binder": "B3", "values": [{"measurement": "stoichiometry N", "setting": "[3]", "value": "2 GR per TIF2 and 1 GRtm-E per TIF2"}]}
